In the supplement of paper PMC12042874:
± gives the uncertainty stated by the source.

Test: amyloid nucleation score (Sup35N fusion, yeast selection) (log enrichment); library NNK1; higher = more nucleation; inactive = no reads after selection
How it was run: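 The nucleation score is the log enrichment of output over input reads, calculated with DiMSum and centred on the mode score of non-aggregating sequences. Sequences with under 100 input reads were excluded. Reads came from Illumina sequencing of plasmid inserts from psi-negative yeast expressing Sup35N fused to peptides of 20 random codons, induced 24 hours with 100 μM copper sulfate and grown 7 days at 30°C without adenine and uracil.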

Substance	amyloid nucleation score
CNFLLATWRRLKYTSQYLKS	-0.073 ± 0.69
NWSFEWWTSIAMEQ	-0.222 ± 0.42
TSYLLCMEQYYLKEISCRDS	0.688 ± 0.38
ADDYCQPGKIGVNNGPHRKR	-0.657 ± 1.7
VYSFDMM	0.256 ± 0.52
SLLDWCYINRHM	0.604 ± 0.44
TICNMSRWYDMKNYGEKMEV	1.21 ± 0.6
IILGL	0.006 ± 0.73
CFCFLRFYRLQPNAQLDSKS	1.69 ± 0.31
GCSTYMVLMVGLGGGMLGGF	1.32 ± 0.26
HPLQMISCNKHIQLANMQFR	0.795 ± 0.37
TRVASQDARTDP	-0.034 ± 0.49
GFFHGHIGLQHMCELQCCSG	inactive
RFMTHLVRRLYAFGMSF	inactive
MVMNTKCE	-0.643 ± 0.55
LSSGSKYFSKVVDASLVCAC	0.377 ± 0.77
RACGYYCKSLCPGCKTCLSR	0.005 ± 1.7
LLTSIPRRVIARVSEGFCCN	-0.311 ± 0.71
LGSVDIRAQCLVNMNMLLSS	0.308 ± 0.43
REWSSYRIVRWYEMCYISTS	-0.158 ± 0.84
YLPYVSLQSVHWIMVGWLN	-0.163 ± 0.8
SRWKLGGGDL	0.006 ± 0.64

Substance	amyloid nucleation score
GQVHRFIWLVT	-0.11 ± 0.3
TSNSS	-1.07 ± 0.52
GYTTLTQGL	-0.513 ± 1.2
PVGYYILGMNGRVMNWSQRQ	1.73 ± 0.52
CGYLCNGKSGERSGIFGAHQ	-0.088 ± 0.39
HRDNH	-0.253 ± 0.35
MEYTYVQTSKYKHERNATWC	0.008 ± 0.97
PAVIILVIKMHGGIKGKDGR	-0.755 ± 0.44
HNFWLCAVSYQDRVMFLSVF	0.497 ± 0.31
EFERVRYLYCGRPVPSHILL	0.005 ± 0.89
TLQLN	-0.59 ± 0.65
DIVSVVVWLKQYLWFEQWNV	0.644 ± 0.81
VLSEVDWLSIFHGWMFGVRC	0.434 ± 1.4
RFFISYTFSWPRYLVGKDLL	-0.936 ± 0.34
AVRTAFLAAHM	-0.64 ± 0.98
MVRNKQKLLKGQ	0.375 ± 0.49
HSFIYYWC	7.49 ± 0.051
RIIITLH	0.264 ± 0.31
NVMVTFFGCIRKWRSNWSQE	-0.016 ± 0.48
NCKNVYCFKYASGIGERAFY	0.091 ± 0.42
GPILDSNKASIPIV	-0.322 ± 0.96
RFLTGCICAQSLRQLTS	-0.075 ± 0.48

Substance	amyloid nucleation score
HFFDITLKADNSIILSLSKS	6.549 ± 0.057
VTKFLWYIPGPKIGRFYLSN	0.43 ± 0.38
ICIDCYQGC	-0.721 ± 1.9
FVMFMPFSSHFS	0.848 ± 0.58
MQVVKIGKLFG	-0.112 ± 0.39
CWASRSSCSLLYVRVVMRHC	0.371 ± 0.57
SNIASNKKVIMINHFKGFSL	3.58 ± 0.057
PEHRSGNKNMYLYRSRDDMN	0.012 ± 0.7
VGRYFTMCFYKSMHRCRRVF	0.266 ± 0.38
TVSLGEQFLFTIAVGYGDSD	inactive
TLMNHGRESLGWFD	-0.828 ± 0.66
NTYVYNDKGVRNIWKKLVYT	inactive
RPGVNLWVLFVTMQTPEIRL	3.01 ± 0.11
GQICAWPITMVWAAGR	-0.391 ± 1.5
SLKGFADSVSGSVGLKDKAV	0.502 ± 0.61
ENRQIWCANGNVVGGTALGV	0.734 ± 0.69
ELRLSLYLRKRRQYFRFVLK	-0.516 ± 1.7
SRTVVTYHQLTWHGVGYMV	0.571 ± 1.2
YCQVYGSVWNFKRYYLATWS	-0.128 ± 0.55
LRSRR	1.41 ± 0.76
WWHSL	2.01 ± 0.62
HYEVYAARVPNHHAKDIFWV	-0.024 ± 0.93

Substance	amyloid nucleation score
YTGKRKT	-0.5 ± 0.46
VIPVLWAVLWEAIIYEEGGA	0.778 ± 0.22
GCHLVWFGVVYRQQWSFGVD	0.563 ± 0.57
EDSGNVIGEYFWKF	-1.44 ± 1.9
LAIFSMFALFSIFGWSNDFT	-0.309 ± 0.43
SFSFKCDYYVPCRRYIFVIL	-1.3 ± 1.1
RLRDTNVYTTQFFVFYLMNW	6.677 ± 0.051
TLLPARGGKKAR	0.256 ± 0.49
RYSSLRWTISFDNLVVSFRP	0.724 ± 0.68
AVIFVVLKMSFSISECDDEW	inactive
FVQFTCSIRDYCA	0.033 ± 0.97
SSFIWMNC	-0.377 ± 0.42
NDLYVGLDTYYIRHNLTRWF	0.447 ± 0.2
VVARYYIQLFDRRDRN	6.678 ± 0.065
IRKHLDPGPSYRSSYLRGW	inactive
LHESVFSWSSKLSLRHGYLR	0.159 ± 0.7
EMAFSSINPRGHSIQGSASG	-0.282 ± 1.2
EIIFVRLGANEHWSHNVYVS	-0.746 ± 1.2
SRASKYMYVWVVLITFHCLR	inactive
